Laboratory results reported in US20210070804A1 (published 2021).

Experiments:
TAMRA-labeled JB006 = assay: fluorescence polarization with TAMRA-labeled JB006
[1] = molecular target: clone nr 1.2 (SEQ ID NO: 2), monoclonal phage; assay: cross reactivity phage ELISA on coated toxin
[2] = molecular target: clone nr 1.4 (SEQ ID NO: 3), monoclonal phage; assay: cross reactivity phage ELISA on coated toxin
[3] = molecular target: clone nr 1.9 (SEQ ID NO: 5), monoclonal phage; assay: phage ELISA, dilution series 1/10 to 1/1000
[4] = molecular target: clone nr 4.10 (SEQ ID NO: 6), monoclonal phage; assay: phage ELISA, dilution series 1/10 to 1/1000
[5] = molecular target: clone nr 1.8 (SEQ ID NO: 4), monoclonal phage; assay: phage ELISA, dilution series 1/10 to 1/1000
[6] = molecular target: clone nr 1.1 (SEQ ID NO: 1), monoclonal phage; assay: monoclonal phage ELISA on coated myotoxin II
[7] = molecular target: clone nr 1.9 (SEQ ID NO: 5), monoclonal phage; assay: cross reactivity phage ELISA on coated toxin
[8] = molecular target: clone nr 1.1 (SEQ ID NO: 1), monoclonal phage; assay: cross reactivity phage ELISA on coated toxin
[9] = molecular target: clone nr 4.10 (SEQ ID NO: 6), monoclonal phage; assay: cross reactivity phage ELISA on coated toxin
[10] = molecular target: clone nr 1.8 (SEQ ID NO: 4), monoclonal phage; assay: cross reactivity phage ELISA on coated toxin

Measured: binding result

B1: Myotoxin II from venom of Bothrops asper (other)
chain: SLFELGKMILQETGKNPAKSYGAYGCNCGVLGRGKPKDATDRCCYVHKCCYKKLTGCNPKKDRYSYSWKDKTIVCGENNSCLKELCECDKAVAICLRENLNTYNKKYRYYLKPLCKKADAC
binds: TAMRA-labeled JB006 | [1] | [2] | [3] | [4] | [5] | [6]

B2: α-cobra toxin (a-cbtx) from Naja kaouthia (other)
chain: IRCFITPDITSKDCPNGHVCYTKTWCDAFCSIRGKRVDLGCAATCPTVKTGVDIQCCSTDNCNPFPTRKRP
binds: [7] | [8] | [1] | [9] | [10] | [2]
